This is an account of results in patent US20230151091A1 (NEW YORK UNIVERSITY, published 2023).

Experiment [1] addresses T1, human MuSK (human, UniProt O15146 24-495).
T1 construct: Recombinant protein coated on ELISA plates (R&D Systems cat. 10189-MK) or on the Biacore chip; also called human muscle-specific tyrosine protein kinase; full length human MuSK
T1 sequence: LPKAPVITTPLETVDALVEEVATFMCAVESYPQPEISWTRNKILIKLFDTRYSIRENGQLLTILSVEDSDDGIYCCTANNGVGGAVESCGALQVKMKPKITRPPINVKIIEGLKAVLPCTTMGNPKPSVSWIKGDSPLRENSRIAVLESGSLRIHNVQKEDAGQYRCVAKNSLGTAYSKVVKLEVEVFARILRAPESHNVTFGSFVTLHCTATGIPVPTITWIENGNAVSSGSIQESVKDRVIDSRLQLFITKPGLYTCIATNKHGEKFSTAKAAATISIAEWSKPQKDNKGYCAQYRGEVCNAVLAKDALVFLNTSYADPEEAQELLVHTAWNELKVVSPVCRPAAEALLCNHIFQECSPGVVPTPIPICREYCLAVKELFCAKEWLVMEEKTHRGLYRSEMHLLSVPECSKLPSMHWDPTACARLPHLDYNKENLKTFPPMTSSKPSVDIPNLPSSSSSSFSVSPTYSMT
Description: ELISA, plate coated with human MuSK at 0.2 µg/ml, dilution series of mAb, goat anti human Fc-HRP and TMB, OD 620 nm (8 min). The procedure: An ELISA plate was coated with human MuSK (R&D Systems, cat. 10189-MK) or mouse MuSK (in house produced in HEK293 cells) at 0.2 μg/ml. After washing and blocking the plate, a dilution series of the anti-MuSK antibodies was applied and allowed to bind for 2 hours at room temperature. […] OD at 620 nm was measured with a 96 well ELISA plate reader.
(In an ELISA, binding on a coated surface is turned into a signal by an enzyme label.)

The target of experiment [2] is T2, mECD: full-length extracellular region of mouse MuSK (E22 to T494) with C-terminal Avi- and His6-tags (mouse, UniProt Q61006 22-494, biotinylated in vitro using the BirA enzyme).
T2 construct: range 22-494; also called mouse ECD; not shown: Avi- and His6-tags
T2 sequence (looked up): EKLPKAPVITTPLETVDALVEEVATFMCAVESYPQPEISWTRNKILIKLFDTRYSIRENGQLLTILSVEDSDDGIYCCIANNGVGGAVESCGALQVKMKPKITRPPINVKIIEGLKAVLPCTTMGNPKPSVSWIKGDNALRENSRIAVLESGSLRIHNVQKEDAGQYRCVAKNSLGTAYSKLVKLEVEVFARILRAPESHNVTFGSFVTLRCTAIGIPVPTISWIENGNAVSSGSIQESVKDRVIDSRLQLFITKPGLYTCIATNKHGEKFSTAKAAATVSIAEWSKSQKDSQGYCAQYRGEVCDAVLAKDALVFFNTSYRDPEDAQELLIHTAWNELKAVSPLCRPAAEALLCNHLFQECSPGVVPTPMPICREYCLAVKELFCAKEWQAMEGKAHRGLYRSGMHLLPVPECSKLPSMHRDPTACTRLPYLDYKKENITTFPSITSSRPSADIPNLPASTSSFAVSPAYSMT
Description: bead-binding titration, Fab format: antigen immobilized on streptavidin beads, MFI by flow cytometry, curve is the 1:1 fit. A general note: A flow cytometer gives signals particle by particle.

For experiment [3], the target named is T3, hECD: full-length extracellular region of human MuSK (E22 to T495) with C-terminal Avi- and His6-tags (human, UniProt O15146 22-495, biotinylated in vitro using the BirA enzyme).
T3 construct: also called human ECD; not shown: Avi- and His6-tags
T3 sequence: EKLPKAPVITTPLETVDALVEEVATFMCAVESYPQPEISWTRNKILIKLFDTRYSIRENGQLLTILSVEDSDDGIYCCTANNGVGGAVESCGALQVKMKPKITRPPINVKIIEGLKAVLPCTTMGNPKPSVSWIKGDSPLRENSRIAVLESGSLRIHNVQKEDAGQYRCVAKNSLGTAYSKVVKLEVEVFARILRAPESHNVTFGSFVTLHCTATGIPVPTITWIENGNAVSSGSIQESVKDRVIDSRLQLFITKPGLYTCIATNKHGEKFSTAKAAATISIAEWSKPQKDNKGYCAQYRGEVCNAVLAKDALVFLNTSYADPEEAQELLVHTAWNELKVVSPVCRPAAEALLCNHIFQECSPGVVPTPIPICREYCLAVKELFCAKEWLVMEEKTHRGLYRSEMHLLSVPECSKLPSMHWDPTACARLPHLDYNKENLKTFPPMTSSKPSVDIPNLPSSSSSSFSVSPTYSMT
The experiment is described as above.

The target in experiment [4] is T4, hFz: Fz domain and C-terminal flanking sequence of human MuSK (K314-T495) with C-terminal Avi- and His6-tags (human, UniProt O15146 314-495, biotinylated in vitro using the BirA enzyme).
T4 construct: also called human Fz; not shown: Avi- and His6-tags
T4 sequence: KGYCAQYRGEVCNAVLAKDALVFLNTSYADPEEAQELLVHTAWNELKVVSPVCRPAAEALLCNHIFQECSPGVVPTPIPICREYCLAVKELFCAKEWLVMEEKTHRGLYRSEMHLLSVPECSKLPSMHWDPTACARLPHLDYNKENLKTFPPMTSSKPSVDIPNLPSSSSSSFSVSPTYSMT
The experiment is described as above.

The target in experiment [5] is T5, mFz: Fz domain and C-terminal flanking sequence of mouse MuSK (D307 to T494) with C-terminal Avi- and … (mouse, UniProt Q61006 307-494, limits assumed, biotinylated in vitro using the BirA enzyme).
T5 construct: also called mouse Fz; not shown: Avi- and His6-tags
T5 sequence (looked up): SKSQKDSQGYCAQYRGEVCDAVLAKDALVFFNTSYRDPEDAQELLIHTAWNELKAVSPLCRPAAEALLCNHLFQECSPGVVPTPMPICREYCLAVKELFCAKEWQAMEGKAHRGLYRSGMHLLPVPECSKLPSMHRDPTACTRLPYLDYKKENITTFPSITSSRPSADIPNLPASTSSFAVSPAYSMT
The description is as above.

The target of experiment [6] is T2, mECD: full-length extracellular region …. The experiment is described as follows: bead-binding assay, Fab format: biotinylated antigen on streptavidin beads, flow cytometry, 1:1 fit; average ± s.d., n=3.
Experiment [7] has as its target T3, hECD: full-length extracellular region …. The description is as above.
Experiment [8] has as its target T4, hFz: Fz domain and C-terminal flanking …. The experiment is described as above.
In experiment [9] the target is T5, mFz: Fz domain and C-terminal flanking …. The description is as above.
Experiment [10] has as its target T1, human MuSK. Description: Biacore T200, MuSK on chip (200RU), 22.2 nM Fab, dissociation pH 7.4. The procedure: (§1) In order to study pH dependent binding of the antibodies described herein to MuSK, a Biacore T200 was used. Briefly, a CMS chip was coated with human and mouse MuSK (200RU) and 22.2 nM of Fab was applied and kinetic parameters calculated. Association was done at pH7.4, dissociation was done at pH 7.4 and also at pH 5.5. The following Fabs were tested, X2, X2m4, X3, X9, X17, 3B2 and 3B2g2m1 (Table 10 and FIG. 23). […] Binding affinity at pH 5.5 is very low, resulting in a rapid dissociation at endosomal pH allowing 3B2g2m1 to recycle.

In experiment [11] the target is T6, mouse MuSK (mouse, UniProt Q61006 22-494, limits assumed).
T6 construct: Coated on ELISA plates or on the Biacore chip; also called full length mouse MuSK; mouse MuSK (in house produced in HEK293 cells)
T6 sequence (looked up): T2 sequence (looked up)
The description is as above. Here is the method: as §1

Experiment [12] addresses T1, human MuSK. Description: Biacore, MuSK on chip (200RU), Fab dilution series. The text has this:
(§2) For affinity determination, a CMS chip was coated with either human or mouse MuSK (200RU) and a dilution series of the antibodies (mAbs and Fabs) was applied in order to be able to calculate the affinity.
(SPR reads the build-up and loss of mass on a sensor chip optically.)

For experiment [13], the target named is T6, mouse MuSK. Description: Biacore, MuSK on chip (200RU), Fab dilution series.
Text: as §2

In experiment [14] the target is T1, human MuSK. The experiment is described as follows: Biacore T200, MuSK on chip (200RU), 22.2 nM Fab, dissociation pH 5.5. Here is the method: as §1
Experiment [15] has as its target T6, mouse MuSK. The experiment is described as above. Here is the method:
as §1

The target of experiment [16] is T1, human MuSK. Description: Biacore T200, off rate at pH 5.5 against pH 7.4. Here is the method: as §1
The target of experiment [17] is T6, mouse MuSK. Description: Biacore T200, off rate at pH 5.5 against pH 7.4. Here is the method: as §1

The term EC50 (read off the curve) denotes the concentration needed to bring the measured effect to its halfway point. Higher therefore signals lower potency in that assay. A word on the Kd: it is the free concentration of one partner at which half of the binding sites on the other are occupied at equilibrium, for simple one-to-one binding. In general, koff refers to the rate constant with which the complex falls apart.

B1: 17H10 (antibody, V domains shown)
VH: QVQVQESGPGLVKPSQTLSLTCTVSGGSITARYYSWSWIRQPPGKGLEWMGVIAYDGSTYYSPSLKSRTSISRDTSKNQFSLHLSSVTPDDTAVYYCARGSSRVAAAFDSWGQGTQVTVSS
VL: SYELTQSPSVSVALRQTAKITCGGNRIGGKSVQWYQQKPGQAPMLVIYADSRRPSGIPERFTGSNSGNTATLTITGAQAEDEADYYCHVWGSTASADFGGGTHLTVL
notes: human IgG1 with the LALA mutations (L234A, L235A); produced in HEK293 cells
In the case of B1, the “EC50 (read off the curve)” value in experiment [1] was approximately 0.02 µg/mL.

B2: X1 Fab (Fab, V domains shown)
VH: EVQLVESGGGLVQPGGSLRLSCAASGFTFSSSSIHWVRQAPGKGLEWVASISSSSGSTSYADSVKGRFTISADTSKNTAYLQMNSLRAEDTAVYYCARKYWSQYYWAHYYGGLDYWGQGTLVTVSS
VL: DIQMTQSPSSLSASVGDRVTITCRASQSVSSAVAWYQQKPGKAPKLLIYSASSLYSGVPSRFSGSRSGTDFTLTISSLQPEDFATYYCQQSSSSLITFGQGTKVEIK
notes: m52 is the same Fab tetramerized with streptavidin; also called Fab Clone X1 (monovalent Fab format)
Regarding B2, the “EC50 (read off the curve)” value is approximately 1 nM in experiment [2], approximately 0.5 nM in experiment [3], approximately 0.4 nM in [4] and approximately 1 nM in [5]. Further, the Kd in experiment [6] was determined as 1.34 nM; in experiment [7], 0.55 nM; in [8], 0.39 nM; in experiment [9] it was 1.09 nM.

B3: 3B2 Fab (Fab, V domains shown)
VH: ELQLVESGGGLVQPGGSLRLSCAASGFTFDDYGMSWVRQAPGKGLEWVSAIPWNGGSTYYKESVKGRFTISRDNAKKTLYLQMNSLKSEDTAVYYCAKRSGRIAFGALDAWGQGTLVTVSS
VL: QAVVTQEPSLSVSPGGTVTLTCGLSSGSVTSSNYPDWYQQTPGQAPRGLIYSTDSRHSGVPSRFSGSISGNKAALTITGAQSEDEADYYCGLYMYSGSKNYVFGGGTKLTVL
notes: Fab format; also called Fab 3B2
In the case of B3, the koff came out at 0.00388 s⁻¹ in [10], 0.00347 s⁻¹ in experiment [11], 0.0224 s⁻¹ in experiment [14] and 0.109 s⁻¹ in experiment [15]. Besides, the values for the Kd in experiment [12] and in [13] were 3.18 nM and 1.52 nM, respectively. In addition, the “Ratio pH 5.5/7.4 of off rate” value in [16] was found to be 5.8; in [17] it was 31.5.

B4: 14D10 (antibody, V domains shown)
VH: B3 VH
VL: QAVVTQEPSLSVSPGGTVTLTCGLSSGSVTSSNYPDWYQQTPGQAPRTLIYTTNSRHSGVPSRFSGSISGNKAALTITGAQPEDEADYYCALYMGGGSNVYVFG
notes: as for B1
Turning to B4, the “EC50 (read off the curve)” value in [1] is approximately 0.04 µg/mL.
